Reference: PMC10705377

Target: GluA2-TARPγ2 fusion construct (rat GluA2, GT linker, mouse TARPγ2 truncated following M4) (rat | mouse)
Assay: cryo-EM structure

## GluA2-TARPγ2 fusion construct (rat GluA2, GT linker, mouse TARPγ2 truncated following M4) (receptor)
  stoichiometry N: 4
